Assay results taken from US11162087B2, “Beta-glucosidase, enzyme composition including same, and method for manufacturing sugar solution using same” (RIKEN, priority 2017, dated 2021).

B1: Mutant 1: His-tagged polypeptide of SEQ ID NO: 6, 88% identity with SEQ ID NO: 1; tested as cell-free extract of transformed E. coli (protein)
chain: QIEGLINVMTLEEKVGQMAQLAIDLFIDVPTDTVIPEAARKGIIDYKIGSILNTYGGVSHSKEVWTYINAEFYKYTEETDLKIPILYGLDSIHGANFVNNFTSFPQQIGMAATFNPSLLKEGSRISAYETRAASVGWVFSPVMDLGLDPRWPRIWEGFGEDPYLSSQFGIASVHGFQGKDPNLIDEFHVAACAKHYLAYSNPFTGKDRTPAILSDIFIREYHLPSFKAAVDAGVASVMVNSGLINGIPTHMNHYLLTTVLKEELGFQGVIVTDWQDIENIHTRDHLAPTQKDAVKLAINAGIDMSMIPYNYDFIDYLIELVHEGEVSIDRINDAVRRILKMKAKMNLWDLPVTKSEDYPEFGSEAHANASYTAASESITLLKNENSTLPLAKNTKVLVVGPNSNSHRSLNGGWSYSWQGNAGVQYAVQYNTIYQAIQKVNGEENTVFSQGVRYIETGNYYEDEEVNISESVALARDVDYIILALGENTYTEKPGDLSDLEISQNQIDLAKALASTGKPIILVLNQGRPRIISRIEQLVSAILWIYWPGNYGGDALADILFGDVNPSGKLPVTYPRYSASLNTRIVSGGSDSFSEGLFIDYKHFDDANITPRYEFGYGLSYTKFNYSRLSVLSTAKSGPATGAVVPGGPSDLFQNVATVTVDIANSGQVTGAEVAQLYITYPSSAPRTPPKQLRGFAKLNLTPGQSGTATFNIRRRDLSYWDTASQKWVVPSGSFGISVGASSRDIRLTSTLSVA
modifications: His tag; amino acid sequence having 88% sequence identity with amino acid sequence of SEQ ID NO 1
notes: tested as cell-free extract of transformed E. coli
B2: Mutant 2: His-tagged polypeptide of SEQ ID NO: 8, 80% identity with SEQ ID NO: 1; tested as cell-free extract of transformed E. coli (protein)
chain: QIEGLINVMTLEEKVGQMAQLAIDLFIDVPTDTVIPEAARKGIIDYKIGSILNTYGGVSHSKEVWTYINAEFYKYTEETDLKIPILYGLDSIHGANFVNNFTSFPQQIGMAATFNPSLLKEGSRISAYETRAASVGWVFSPVMDLGLDPRWPRIWEGFGEDPYLSSQFGIASVHGFQGKDPNLIDEFHVAACAKHYLAYSNPFTGKDRTPAILSDIFIREYHLPSFKAAVDAGVASVMVNSGLINGIPTHMNHYLLTTVLKEELGFQGVIVTDWQDIENIHTRDHLAPTQKDAVKLAINAGIDMSMIPYNYDFIDYLIELVHEGEVSIDRINDAVRRILKMKAKMNLWDLPVTKSEDYPEFGSEAHANASYTAASESITLLKNENSTLPLAKNTKVLVVGPNSNSHRSLNGGWSYSWQGNAGVQYAVQYNTIYQAIQKVNGEENTVFSQGVRYIETGNYYEDEEVNISESVALARDVDYIILALGENTYTEKPGDLSDLEISQNQIDLAKALASTGKPIILVLNQGRPRIISRIEQLVSAILWIYWPGNYGGDALADILFGDVNPSGKLPVTYPRYSASL
modifications: His tag; amino acid sequence having 80% sequence identity with amino acid sequence of SEQ ID NO 1
notes: as for B1

Tests used:
[1] = β-glucosidase activity measurement with pNP-Glc; assay type: biochemical; details: cell-free extract, volume reduced to one-twelfth by ultrafilter membrane; detection limit 0.075
Procedure: In the present invention, “β-glucosidase” means an enzyme that catalyzes a reaction for hydrolysis degradation of a sugar β-glucoside bond. In the present invention, a method for measuring a β-glucosidase activity utilizes a reaction using p-nitrophenyl-β-D-glucopyranoside (pNP-Glc) as a substrate. Specifically, an enzyme liquid is added to a substrate solution prepared by dissolving pNP-Glc in 50 mM acetic acid-sodium acetate buffer solution (pH 5.0) and reacted at 30° C. for 10 minutes; and the reaction is stopped by well mixing with 2M sodium carbonate in an amount equivalent to one-tenth of a reaction system volume to measure an increase of the absorbance at 405 nm. When p-nitrophenol is released and the absorbance at 405 nm is increased after the above reaction, it is determined that the β-glucosidase activity is present.
10 μL of an enzyme diluted solution was added to and reacted with 90 μL of 50 mM acetic acid buffer containing 1 mM p-nitrophenyl-β-glucopyranoside (manufactured by Sigma-Aldrich Japan) at 30° C. for 10 minutes. Thereafter, 10 μL of 2M sodium carbonate was added and well mixed to stop the reaction, and an increase of absorbance at 405 nm was measured. The activity to release 1 μmol of p-nitrophenol per minute was defined as 1 U. For a blank, 10 μL of 2M sodium carbonate was added to and well mixed with 90 μL of 50 mM sodium acetate buffer containing 1 mM p-nitrophenyl-β-glucopyranoside, and thereafter, 10 μL of an enzyme diluted solution was added to cause a reaction at 30° C. for 30 minutes. Thereafter, an increase of absorbance at 405 nm was measured. At this time, the enzyme liquid was diluted so as not to exceed an absorbance at 405 nm of 1. In addition, a calibration curve was created based on absorbances measured by preparing p-nitrophenol solutions at concentrations of 0.1 mM, 0.2 mM, 1 mM and 2 mM; using 10 μL of them instead of an enzyme diluted solution; and adding and well mixing 10 μL of 2M sodium carbonate for color development.

[2] = Inhibitory action of glucose on the β-glucosidase activity; assay type: biochemical; details: 1 mM pNP-Glc, 30° C., 100 minutes
Source text: The β-glucosidase derived from a protist of the genus Pseudotrichonympha of the present invention is preferably less likely to suffer from inhibition by glucose on the 3-glucosidase activity. Specifically, when the β-glucosidase activity in the absence of glucose is taken unity, the β-glucosidase activity under a condition of a glucose concentration of 8 g/L (or in the presence of 8 g/L glucose) is preferably 0.5 or more, more preferably 0.6 or more, more preferably 0.7 or more, more preferably 0.8 or more, more preferably 0.9 or more, more preferably 1.0 or more, more preferably 1.1 or more, more preferably 1.2 or more, more preferably 1.3 or more, and in particular preferably 1.4 or more. Further, in addition to the β-glucosidase activity under the condition of the glucose concentration of 8 g/L, when the β-glucosidase activity in the absence of glucose is taken as unity, the β-glucosidase activity under a condition of a glucose concentration of 20 g/L (or in the presence of 20 g/L glucose) is preferably 0.5 or more, more preferably 0.6 or more, and in particular preferably 0.7 or more. The method used herein for measuring the β-glucosidase activity is the same as the above-described method except that 8 g/L or 20 g/L of glucose is added at the time of measuring; and results obtained thereby are used.
An enzyme solution was added to a mixture solution containing 1 mM p-nitrophenyl-β-glucopyranoside (manufactured by Sigma-Aldrich Japan), 50 mM acetic acid buffer and 0, 4, 8 or 20 g/L glucose such that the total amount of the reaction solution became 100 μL, causing a reaction at 30° C. for 100 minutes. Thereafter, 10 μL of 2M sodium carbonate was added and well mixed to stop the reaction, and an increase of absorbance at 405 nm was measured. The activity to release 1 μmol of p-nitrophenol per minute was defined as 1 U. For a blank, 10 μL of 2M sodium carbonate was added to an amount, equivalent to that of the above mixture solution for the reaction solution before addition of the enzyme solution, of a mixture solution containing 1 mM p-nitrophenyl-β-glucopyranoside, 50 mM sodium acetate buffer and 0, 4, 8 or 20 g/L glucose, and mixed well; and then, the enzyme solution was added such that the total solution amount of the blank became 110 μL, causing a reaction at 30° C. for 30 minutes. Thereafter, an increase of absorbance at 405 nm was measured.
In accordance with Reference Example 8, the inhibitory action of glucose on the β-glucosidase activity was measured in enzyme compositions: containing the β-glucosidase and the genus Trichoderma filamentous fungus-derived cellulase prepared in Example 10; and the cell-free extract of β-glucosidase mutant gene transformed E. coli prepared in Example 5. For a comparative control, only the genus Trichoderma filamentous fungus-derived cellulase was used, and the inhibitory action of glucose on the β-glucosidase activity was measured in the same manner. […] That is, both of the enzyme composition containing the β-glucosidase of the present invention and the genus Trichoderma filamentous fungus-derived cellulase, and the cell-free extract of β-glucosidase mutant gene transformed E. coli were less likely to suffer from inhibition on the β-glucosidase activity by glucose, compared to only the genus Trichoderma filamentous fungus-derived cellulase, and the enzyme composition of Comparative Example 1 containing the genus Aspergillus filamentous fungus-derived β-glucosidase and the genus Trichoderma filamentous fungus-derived cellulase.

Molecule	Increase of absorbance (405 nm) [1]	BGL activity (relative value) in the presence of 8 g/L glucose when BGL activity in the absence of glucose is taken as unity [2]	BGL activity (relative value) in the presence of 20 g/L glucose when BGL activity in the absence of glucose is taken as unity [2]
B1	0.307	0.71	0.70
B2	0.365	0.74	0.72
